Assay results published in patent US20260176378A1 (DYAX, published 2026).

B1: M76-G06 (Fab, V domains shown)
VH: EVQLLESGGGLVQPGGSLRLSCAASGFTFSGYIMHWVRQAPGKGLEWVSWIYPSGGWTEYADSVKGRFTISRDNSKNTLYLQMNSLRAEDTAVYYCARDAPGVGAIDYWGQGTLVTVSS
VL: DIQMTQSPSSLSASVRDRVTITCRASQSISTYLNWYQQKPGEAPKLLVFAASSLQSGVPSRFSGSGSGTDFTLSISSLQPEDFATYYCQQSYSTPHTFGQGAKVEIK
B2: M76-H02 (Fab, V domains shown)
VH: EVQLLESGGGLVQPGGSLRLSCAASGFTFSMYWMQWVRQAPGKGLEWVSYIYPSGGPTKYADSVKGRFTISRDNSKNTLYLQMNSLRAEDTAVYYCARPSGSYGDAFDIWGQGTMVTVSS
VL: DIQMTQSPSSLSASEGDRVTITCRASQDISVYLNWYQMKSGKAPKLLIYGGASLQSGVPARFSGSGYGTDFTLTITDLRPEDFATYYCQQSYSLPFTFGGGTKVEIK
B3: M77-C07 (Fab, V domains shown)
VH: EVQLLESGGGLVQPGGSLRLSCAASGFTFSLYIMGWVRQAPGKGLEWVSGIYPSGGFTMYADSVKGRFTISRDNSKNTLYLQMNSLRAEDTAVYYCARESSGVAAPDYWGQGTLVTVSS
VL: DIQMTQSPSTLSASVGDRVTITCRASQNISSYLNWYQQKPGKAPKLLIYAASSLQSGVPSRFSGSGSGTDFTLTISSLQPEDFATYSCQQSYSTPRTFGQGTKVEIK
B4: M77-H04 (Fab, V domains shown)
VH: EVQLLESGGGLVQPGGSLRLSCAASGFTFSYYTMIWVRQAPGKGLEWVSGIRSSGGGTRYADSVKGRFTISRDNSKNTLYLQMNSLRAEDTAVYYCAKDGSRYSYGSIYYYYGMDAWGQGTTVTVSS
VL: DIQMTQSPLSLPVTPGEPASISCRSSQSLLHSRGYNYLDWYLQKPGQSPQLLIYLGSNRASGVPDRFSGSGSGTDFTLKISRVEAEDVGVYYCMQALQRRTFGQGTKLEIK
B5: M6-A06 (Fab, V domains shown)
VH: EVQLLESGGGLVQPGGSLRLSCAASGFTFSLYQMTWVRQAPGKGLEWVSGIWPSGGFTDYADSVKGRFTISRDNSKNTLYLQMNSLRAEDTAVYYCARVSTAVADNDYWGQGTLVTVSS
VL: DIQMTQSPSSLSASVGDSVTISCRASQSISMYLNWYQHKPGKAPKLLIYGTSSLQSGVPSRFSGSGPGGTDFTLTISSLQPEDFATYYCQQSYSAPWTFGQGTKVEIK
B6: M6-A08 (Fab, V domains shown)
VH: EVQLLESGGGLVQPGGSLRLSCAASGFTFSPYPMQWVRQAPGKGLEWVSSISSSGGMTEYADSVKGRFTISRDNSKNTLYLQMNSLRAEDTAVYYCARDDYGGKGGAFDIWGQGTMVTVSS
VL: DIQMTQSPSSLSASVGDRVTITCRASQRISFYLNWFQQKPGKAPNLLIYGASSLQSGVPSRFSGSGSGTDFTLTISSLQPKDFGTYYCQQTFSTPNTFGQGTKLEIK
B7: M6-D03 (Fab, V domains shown)
VH: EVQLLESGGGLVQPGGSLRLSCAASGFTFSKYFMGWVRQAPGKGLEWVSVIGSSGGWTSYADSVKGRFTISRDNSKNTLYLQMNSLRAEDTAVYYCARVSTAVADNDYWGQGTLVTVSS
VL: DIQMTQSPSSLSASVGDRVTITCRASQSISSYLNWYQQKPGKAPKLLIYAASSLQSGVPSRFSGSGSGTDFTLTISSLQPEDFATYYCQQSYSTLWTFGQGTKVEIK
B8: M6-D08 (Fab, V domains shown)
VH: EVQLLESGGGLVQPGGSLRLSCAASGFTFSRYHMVWVRQAPGKGLEWVSSISPSGGWTNYADSVKGRFTISRDNSKNTLYLQMNSLRAEDTAMYYCAREMATIAGQFDPWGQGTLVTVSS
VL: DIQMTQSPSSLSASVGDRVTITCRASQSISSYLNWYQQKPGKAPKLLIYGASSLQSGVPSRFSGSGSGTDFTLTISSLQPEDSATYYCQQSYTRWTFGQGTKVEIK
B9: M6-G05 (Fab, V domains shown)
VH: EVQLLESGGGLVQPGGSLRLSCAASGFTFSRYRMVWVRQAPGKGLEWVSSIYPSGGMTAYADSVKGRFTISRDNSKNTLYLQMNSLRAEDTAVYYCARDAVGIGDAFDIWGQGTMVTVSS
VL: DIQMTQSPSSLSASVGDRVTITCRASQSISTYLNWYQLKPGKAPKLLIYNAFSMERGVPSTISGSGSGTDFTLTISSLQPEDFATYYCQQSYTTPTTFGQGTKVEIK
B10: M8-C04 (Fab, V domains shown)
VH: EVQLLESGGGLVQPGGSLRLSCAASGFTFSYYPMQWVRQAPGKGLEWVSYIYPSGGLTSYADSVKGRFTISRDNSKNTLYLQMNSLRAEDTAVYYCARLFYGSGSVGFEYWGQGTLVTVSS
VL: QSALTQPPSVSVSPGQTASITCSGDKLGDKYTSWHQQKPGQSPVLVIYQDSKRPSGIPERFSGSNSGNTATLTISGTQAMDEADYYCQAWDSSTVFGGGTRLTVL
B11: M8-D05 (Fab, V domains shown)
VH: EVQLLESGGGLVQPGGSLRLSCAASGFTFSLYNMNWVRQAPGKGLEWVSSISPSGGFTDYADSVKGRFTISRDNSKNTLYLQMNSLRAEDTAVYYCARDLDLGILDYWGQGTLVTVSS
VL: DIQMTQSPSFVSASVGDRVTITCRASQDISSWLVWYQQKPGKGPKLLIYDASNLQSGVPSRFSGGGSGTHFTLTISSLQPEDFATYYCQQADGFPLTFGGGTKVEMK
B12: M8-E06 (Fab, V domains shown)
VH: EVQLLESGGGLVQPGGSLRLSCAASGFTFSHYFMTWVRQAPGKGLEWVSSIVPSGGMTQYADSVKGRFTISRDNSKNTLYLQMNSLRAEDTAVYYCARDSYSSSWFDIWGQGTMVTVSS
VL: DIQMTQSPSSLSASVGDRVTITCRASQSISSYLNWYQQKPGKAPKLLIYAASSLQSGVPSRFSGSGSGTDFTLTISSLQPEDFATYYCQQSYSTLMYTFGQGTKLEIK
B13: M8-G09 (Fab, V domains shown)
VH: EVQLLESGGGLVQPGGSLRLSCAASGFTFSLYEMLWVRQAPGKGLEWVSVIYPSGGYTDYADSVKGRFTISRDNSKNTLYLQMNSLRAEDMAVYYCARSFSGFGEIDYWGQGTLVTVSS
VL: DIQMTQSPSSLSASVGDTVTITCRASQGVSYYLAWFQQKPGKAPKSLIYGASSLQSGVPSKFSGSGSGTVFTLTISSLQPDDFATYYCQQYNTYPPTFGQGTRLDIK
B14: M8-H04 (Fab, V domains shown)
VH: EVQLLESGGGLVQPGGSLRLSCAASGFTFSGYWMGWVRQAPGKGLEWVSSISSSGGWTQYADSVKGRFTISRDNSKNTLYLQMNSLRAEDTATYYCARDDEIAAGGAFDIWGQGAMVTVSS
VL: DIQMTQSPSSLSASIGDRVTITCRASQYISTYLNWYEQKPGKAPKLLIYGTSSLQSGVPSRFSGSGSGTEFSLTISSLQPEDFATYYCQQSFTTPFTFGQGTKLEIK
B15: M9-A03 (Fab, V domains shown)
VH: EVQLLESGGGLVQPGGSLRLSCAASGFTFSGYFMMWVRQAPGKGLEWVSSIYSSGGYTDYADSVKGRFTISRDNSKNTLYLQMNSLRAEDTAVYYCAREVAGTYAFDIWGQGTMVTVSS
VL: DIQMTQSPSSLSASLGDRVTITCRASQNIDIYLNWYQQTPGKAPKLLIYGAYNLQSGVPSRFSGSGSGTDFTLTISSLQPEDFGTYYCQQSYGTPVFGQGTKLEIK
B16: M9-A08 (Fab, V domains shown)
VH: EVQLLESGGGLVQPGGSLRLSCAASGFTFSAYEMWWVRQAPGKGLEWVSYIGSSGGSTSYADSVKGRFTISRDNSKNTLYLQMNSLRAEDTAVYYCTGGNSSSFDAFDIWGQGTMVTVSS
VL: DIQMTQSPSSLSASVGDRVTVTCRASQRISTYLNWYQQKPGKAPKLLISGASSLQSGVPSRFSGSGSGTDFTLTISSLQPDDFATYYCQQSYNTPRTFGQGTKVEIR
B17: M9-C08 (Fab, V domains shown)
VH: EVQLLESGGGLVQPGGSLRLSCAASGFTFSHYGMVWVRQAPGKGLEWVSYIVPSGGLTYYADSVKGRFTISRDNSKNTLYLQMNSLRAEDTAVYYCARVDYTGDGLGYWGQGTLVTVSS
VL: DIQMTQSPSSLSASVGDRVTITCRASQSISIYVNWYQQKPGKAPNLLIFAASSLQRGVPSRFSGSGSGADFTLTISSLQPEDFATYYCQQSFSTPLTFGGGTKVEIK
B18: M9-C10 (Fab, V domains shown)
VH: EVQLLESGGGLVQPGGSLRLSCAASGFTFSLYPMQWVRQAPGKGLEWVSSIGSSGGMTFYADSVKGRFTISRDNSKNTLYLQMNSLRAEDTAVYYCTREVGAAGFAFDIWGQGTMVTVSS
VL: DIQMTQSPSSLSASVGDRVTITCRASQGISSYLNWYQQKPGNAPNLLIYGASSLQSGVPSRFSGSGSGTDFTLTISSLQPEDFATYYCQESYSTLFTFGPGTTVEIK
B19: M9-D08 (Fab, V domains shown)
VH: EVQLLESGGGLVQPGGSLRLSCAASGFTFSWYKMMWVRQAPGKGLEWVSSIYPSGGWTNYADSVKGRFTISRDNSKNTLYLQMNSLRAEDTAVYYCTRGSPWGDDAFDIWGQGTMVTVSS
VL: DIQMTQSPSSLSASVGDRVTLTCRASRTISFYLNWYQQKAGKAPELLIYGGSSLHSGVPSRFSGSGSGTDFSLTISNLQPEDIAVYYCQQSFSSPWTFGQGTKVEIK
B20: M9-E04 (Fab, V domains shown)
VH: EVQLLESGGGLVQPGGSLRLSCAASGFTFSEYDMMWVRQAPGKGLEWVSSIGSSGGMTYYADSVKGRFTISRDNSKNTLYLQMNSLRAEDTAVYYCARDQVAAAAIDYWGQGTLVTVSS
VL: DIQMIQSPSSLSASVGDRVTITCRASQSISGYLNWYQQRSGKAPKLLIFAASNLQTGVPSRFSGSGSGTDFTLTINNLQPEDFATYYCQQSHTPPKTFGPGTKVDIK
B21: M9-F08 (Fab, V domains shown)
VH: EVQLLESGGGLVQPGGSLRLSCAASGFTFSPYAMTWVRQAPGKGLEWVSVIYPSGGFTDYADSVKGRFTISRDNSKNTLYLQMNSLRAEDTAMYYCARASGSYLDAFDIWGQGTMVTVSS
VL: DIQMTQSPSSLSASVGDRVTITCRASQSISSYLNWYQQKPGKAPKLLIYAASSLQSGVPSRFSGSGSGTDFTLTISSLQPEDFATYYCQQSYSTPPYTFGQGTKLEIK
B22: M9-F09 (Fab, V domains shown)
VH: EVQLLESGGGLVQPGGSLRLSCAASGFTFSSYPMGWVRQAPGKGLEWVSRISSSGGMTIYADSVKGRFTISRDNSKNTLYLQMNSLRAEDTAVYYCARDDWNVGMDVWGQGTTVTVSS
VL: DIQMTQSPSSLSASVGDRVTITCRASQSISSYLNWYQQKPGKAPKLLIYAASSLQSGVPSKFSGSGSGTDYTLTISSLQPEDFATYYCQQTYTTPWTFGQGTKVEIK
B23: M9-F10 (Fab, V domains shown)
VH: EVQLLESGGGLVQPGGSLRLSCAASGFTFSDYDMEWVRQAPGKGLEWVSSISPSGGSTIYADSVKGRFTISRDNSKNTLYLQMNSLRAEDTAVYYCARQGLLTAFDIWGQGTMVTVSS
VL: DIQMTQSPSSLSASVGDRVTITCRASQSINTYLNWYQQKPGKAPKVLIHAASTLESGVPSRFSGSGSGTDFTLTISSLQPEDFATYYCQQSYSTPYTFGQGTKLEVR
B24: M9-G08 (Fab, V domains shown)
VH: EVQLLESGGGLVQPGGSLRLSCAASGFTFSYYTMLWVRQAPGKGLEWVSSIYPSGGFTMYADSVKGRFTISRDNSKNTLYLQMNSLRAEDTAVYYCARVDTAMAMIDYWGQGTLVTVSS
VL: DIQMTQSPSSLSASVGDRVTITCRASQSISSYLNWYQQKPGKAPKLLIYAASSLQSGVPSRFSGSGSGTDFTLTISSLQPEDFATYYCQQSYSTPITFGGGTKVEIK

Target: T1, human plasma kallikrein (human, UniProt P03952 20-390; P03952 391-638)
T1 construct: two disulfide-linked chains; NP_000883.2; also called pKal; hpKal
Assay: ELISA, biotinylated pKal signal over streptavidin background

T1 sequence (P03952 20-390 limits assumed, chain 1 of 2): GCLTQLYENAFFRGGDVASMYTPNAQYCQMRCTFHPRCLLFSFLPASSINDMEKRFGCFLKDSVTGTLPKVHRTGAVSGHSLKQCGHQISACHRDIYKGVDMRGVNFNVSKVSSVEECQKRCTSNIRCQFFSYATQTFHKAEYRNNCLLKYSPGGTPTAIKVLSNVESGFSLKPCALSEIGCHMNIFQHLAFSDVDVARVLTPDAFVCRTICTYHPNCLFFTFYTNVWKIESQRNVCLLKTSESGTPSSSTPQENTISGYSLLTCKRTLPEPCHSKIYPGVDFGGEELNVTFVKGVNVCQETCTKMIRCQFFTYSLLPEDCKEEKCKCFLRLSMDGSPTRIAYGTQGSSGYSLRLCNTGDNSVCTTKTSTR
T1 sequence (P03952 391-638 limits assumed, chain 2 of 2): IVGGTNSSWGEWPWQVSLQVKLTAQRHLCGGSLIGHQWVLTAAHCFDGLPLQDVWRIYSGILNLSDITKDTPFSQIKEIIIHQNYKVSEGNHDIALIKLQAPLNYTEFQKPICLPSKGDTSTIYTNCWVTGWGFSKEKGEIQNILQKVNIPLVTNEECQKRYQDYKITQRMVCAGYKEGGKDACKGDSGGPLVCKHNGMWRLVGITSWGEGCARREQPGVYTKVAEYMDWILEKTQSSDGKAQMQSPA

First: B1
Second: B2
The “ELISA (T/B)” value of the first is lower: 11.8 for the first, 13.4 for the second.

Compared with B3, B4 is lower in “ELISA (T/B)” value: 16.1 for the first, 7.6 for the second.

Compared with B5, B6 is higher in “ELISA (T/B)” value: 11.7 for the first, 23.4 for the second.

Going from B7 to B8, the “ELISA (T/B)” value rises from 15.5 to 16.

Compared with B9, B10 is higher in “ELISA (T/B)” value: 18.5 for the first, 44.7 for the second.

First: B11
Second: B12
The “ELISA (T/B)” value of the first is higher: 11.9 for the first, 8.8 for the second.

First: B13
Second: B14
The “ELISA (T/B)” value of the first is higher: 28.2 for the first, 3.3 for the second.

Compared with B15, B16 is lower in “ELISA (T/B)” value: 14.4 for the first, 5.5 for the second.

Going from B17 to B18, the “ELISA (T/B)” value falls from 10.9 to 7.8.

Going from B19 to B20, the “ELISA (T/B)” value falls from 35.9 to 18.8.

First: B21
Second: B22
The “ELISA (T/B)” value of the first is higher: 10.9 for the first, 7 for the second.

Compared with B23, B24 is lower in “ELISA (T/B)” value: 8.4 for the first, 4.8 for the second.
